Data published in the nanobody polyreactivity screen of Harvey et al. (2022).

Experiment: yeast display, Sf9 membrane polyspecificity reagent, FACS + sequencing; frameworks hold sequencing errors
In short: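 Synthetic nanobody libraries on Saccharomyces cerevisiae BJ5465 were galactose-induced for 36–48 hours, stained 1 hour at 4 °C with 10% biotinylated, detergent-solubilized Sf9 membrane reagent and enriched on streptavidin microbeads. FACS then separated cells into low and high (top ~1%) gates by anti-HA (expression) and streptavidin (reagent binding) fluorescence. Genes were colony-PCR amplified, MiSeq 2 × 250 sequenced and CDR-length filtered. A clone's polyreactivity label is that of its gate of origin.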

Sequence | polyreactivity (PSR sort gate)
QVQLVESGGGLVQAGGSHRLSCAASGSTFSWNTMGWYRQAPGKERELVASITRSDGSTYADSEKGRFTISRDNAKNTVYLQMNSLKPEDTAVYYCNADPYLYLYLNYDYWGQGTQVTVSS | low polyreactivity
QVQLQGSGGGLAQAGDSLRLSCAASGTIFSEYNNGLVSPGAGQRTRTCCRYWCWGNTYYADSAKGRFTTSRDNAKNTVYLQKHSLKPADTAVYYCAFNRPFPSRHIYRGQGTQVTVSS | high polyreactivity
QVQLVESGGGLVQAGGSLRLSCAASGITFKTYAMGWYRQAPGKVRELVATITRGSRTNYADSVKGRFTISRDNAKNTVYLQMNSLKREHTAVYYCAAHYTTFIRSPDGDYLGQGTQVTVSS | low polyreactivity
QVQLVESGGGLVQAGGSLRLSCAASGSTFAHNAMGWYRQAPGKERELVAAISRRGGSTYYADSVKGRFTISRDNAQNTVYLQMNSLKPEDTAVYYCNAVAHNVRVYRFYPGWAGLDYWGQGTQVTVSS | high polyreactivity
QVQLVESGGGLVQAGGSLRLSCAASGLIFGYNAMGWYRQAPGKERELVAAISSSGGSTSYADSVKGRFTISRDNAKNTVYLQMNSLKPEDTAVYYCAAKPGRYADYDYNSWGQGTQVTVSS | low polyreactivity
QVQLVESGGALVQAGGSHRLSCAASGRTFHFNAMGWYRPATGKERELVAAITNSGGRTSYADSVKGRFTISRDNAKNTVYLQMNSMKPEDTAVYYCNVEVTYSSGKYDYWGPGTQVTVSS | low polyreactivity
QVQLVESGGGLVQAGGSLRLSCAASGRTFGRKAMGWYRQAPGKERELVAAIARSGASTYYADSVKGRFTISRDNAKNTVYLQMNSLNPEDTAVYYCAKDVWGSRYAYDYWGQGTQVTVSS | low polyreactivity
QVQLVESGGGLVQAGGSLRLSCDDSGFIFFDYAMGWYRQAPGKEREFVAAISTRGGSTYYADSVKGLFTISRDNAKNTVYLQMNSLKPEDTSVYYCNARTIRPWGENGYWGQGTQVSVSS | high polyreactivity
QVQLVESGGGLVQAGGSLRLSCAASGSIFVKNAMGWYRPAPGKEREFVAAITTSGGSTNYADSVKGRFTISRDNAKNTVYLQMTSLKPEDTAVYYCNTDIFPAAYDYWVQGTQVTVSS | low polyreactivity
QVQLVESGGGLVQAGGSLRLSCAASGLILVGNTMGWYRQAPGKERELVATITSGGRTYYADSVKGRFTISRDNAKNTVYLQMNSLKPEDTAVYYCAKRAFSYVGGQQDRKENYYYWGQGTQVTVSS | high polyreactivity
QVQLVESVGGLVQAGGSLRLSCAASGSIFEYYAMGWYRQAPGKERELVAAITRSGGSTYYADSVKGRFTISRDNAKNTVYLQMNSLKPEDTAVYYCAVRGYSSYTYDEYYVGYDYWGQGTQVTVSS | low polyreactivity
QLQLVESGGGLVQAGGSLRLSCAASGSIFHGNVMGRYRHAPGKEMELVAAISSSGGSTYYADSVKGRFTISRDIAKNTVYLQMNSLKPEDNAVYYCAARNRYWGQGTQVTVSS | high polyreactivity
QVQLVESGGGLVQAGGSLRLSCAASGGIFARYVKGWYRQAPGKERELVAAISLSGGSTYYADSVKGRFTISRDNAKKTVYLQMNSLNPEDTAVYYCAAIRKKRLTYDYWGQGTEVTVSS | high polyreactivity
QVQLVESGGGLVQAGGSLRLSCAASGRTFYINAMGWYRQAPGKEREFVAAITDGGDRTYYADSVKGRFTISRDNEKNTVYLQMNSLKPEDTAVYYCAADRGVRYDYWGQGTQVTVSS | low polyreactivity
QVQLVESGGGLVQAGGSLRLSSAGSGSTLGFNAMGWYRQAPGKEREFVAGNSASGSSTYFADSVKGRFTISRDNAKNTVYLHINSLKTEDSAVYYFYARVRVRLGRNWSTYYYWGQGTEVTVSS | high polyreactivity
QVQLVESGGGLVQGGGSLRLSCAASGRIFGVNAMGWYRQAPGKERELVATITSGTSTYYADSVKGRFTIARDNATTTVYLQITSLKPEDTAVYYSATSRVIPWDYDSWGQGTQVTVSS | low polyreactivity
QVQLVESGGGLVQAGGSLRLSCAASGNILPSNAMGRYREAPGKEWELVAAITWSVGRTYYADSVKGRFTISRDNAKYTVYLQMNSLKPEDTAVYYCAADDYWDDVYYYVTGSTGYDYWGQGTQVTVSS | low polyreactivity
QVQLVESGGGLVQAGGSLRLSCAASGITIRRYAMGWYRQAPGKERELVAAISTSGGGTYYADSVKGRFTISRDNAKNTVYLQMNSLKPEDTAVYYCAARYLGYLLSGYPPYDYWGQGSQVTVSS | high polyreactivity
QVHLVDSGGGLVQAGGSLSLRCAASRRSFVPYAMGWYSQGPGKEREFLADITWSTCTSTYYADSEKGRFTISRDNAKNTVYLHMNSLKPEDTAVYYCAVDIWWPNWYYIYWGQGTQVTLSS | low polyreactivity
QVQVVESVGGLVHAGCSLRLSCAASGRTFISNAMGWYRQAPGKERELVATITYSDATTYYADSVKGRFTISRDNAKNTVYLQMNSLKPEDTAVYYCIAQSRSYDRYISAGRRYDYWGQGTQVTVSS | low polyreactivity
QVQLVESGGGLVQAGGSLRLSCAASGSIFVHYAMGWYRQAPGKERELVARISWRGNTYYADSVKGRFTISRDNAKNTVYLQMNSLKPEDTAVYYCAAEYFWYYYYLMDYWGQGTQVTVSS | low polyreactivity
QVQLVESGGGLVQAGGSLRLSCAASGSTFRFYAMGWYRQAPGKERELLAAINGSGGSTYYADSVKGRFTISRDKAKSTVNLQMNSLKPEDTAVYYSAVLYRYGYDYWGQGTQVTVSS | low polyreactivity

Sequence | polyreactivity (PSR sort gate)
QVQLVESGGRLVQAGGSLRLSCAASGGTFPTNAMGWYTQAPGKERELVAAITSSGVRTYYADSVKGRFTISRDNAKNTVYLQMNSLKPEDTAVYYCNAVTRYVRLTDDDYWGQGSQVTVSS | high polyreactivity
QVQLVESGGCLVQAGGSLRFICAASGRIFDDNAMGWYRPAPGKERELVATISSTGGRTYYADSLKGRFTISRDNAKNNVYLQMNSLKPEDTAVYYCAARRRQGGYYYWGQGTQVTVSS | high polyreactivity
QVQLVESGGGLVQAGGSLRLSCAASGSIFDGYAMGWYRQAPGKETELVARITWSGGSTYYADSVKWRFTISRDNAKNTVYLQMNSLKPEDTAVYYCNVDQVHPTRGLDYWGQGTQVTVSS | low polyreactivity
QVQLVESGGGLVQAGGSLRLSCAASGNIFVVNAMGWYRQAPGIERELVAAITVSGGSTYYADSVKGRFTISRDNAKNTVYLQMNRLKPEDTAVYYCNAYYWHDNWDIELGKFDYWGQGTQVTVSS | low polyreactivity
QVQLVESGGGLVQAGGSLRLSCAASGLIFGYYAMGWYRQAPGKERELVAAISSSGTRTYYADSVKGRFTISRDNAMNTVYLQMNSLKPEDTAVYYCNADSYGSRYEYWGQGTQVTVSS | high polyreactivity
QVQLVESGGGLVQAGGSLRLSCAASGFTFAMNAMGWYRQAPGKERELVAAITFSGGSTYADSVKGRFTISRDNAKNTVYLQMNSLKPEDTAVYYCNAGGDGVATGYDYWGQGTQVTVSS | low polyreactivity
QVQLQESGGGLMQAGGSQRLSCAARGSISYYSDMGWYLQAPGKEREFVAGIGYGTTTNYADSVKGRFTTSRDNAKNTVYLQMISMKPEDTAVYYCAAYQGNGYEFYYWGQGTQVTVRS | low polyreactivity
QVQLVESGGGLVQAGGSLRLSCAPSGRIFQYYTMGWSRQAPGKDRELVATISRRGGRTYYADSVKGRFTISRDNAKNTVYLQKNSLKPEDTAVYYCAARTYSYEYDYWGQGTQVTVSS | high polyreactivity
QVQLVESGGGLVQAGGSLRLSCAASGFTFSYYAMGWYRQAPGKERELVAAISWSGTAMYYADSVKGRFTISRDNAKNTVYLQMNSLKPEDTAVYYCAAGYSASRKVDYWGQGTQVTVSS | high polyreactivity
QVQLVESGGGLVQAGCSLRLICAASGFIFPTNAMGWYRQAPGKERELVARISYGGGDTHYADSVKGRFTISRANAKTTVYLQMNSLKPEDTAVHYCAVKDGQDDYWGQGTQVTVSS | low polyreactivity
QVQLVESGGGLVQAGGSLRLSCAASGRIFHGYAMGWYRQAPGKERELVAAISATGGSTYYADSVKGRFTISRDNAKNTVYLQMNSLKPEDTAVYYCARTNFYRSYDPGGRFYNYDYWGQGTQVTVSS | low polyreactivity
QVQLVESGGGLVQAGGSLRLSCAASGYIFGWYAMGWYRQAPGKERELVATIDWSGDSTYYADSVKGRFTISRDNAKNTVYLQMNSLKPEDTAVYYCSAGVGYITYYGYDYWGQGTQVTVSS | low polyreactivity
QVQLVESGGCLVQAGRSLRLSCAASGIIFGGNVMGWYRQAAGKERQLVAAINWSVVTTYYADSVKGRFTISRDNAKNTVYLQMNSLKAADTAVYYCNKDYVTAPYFYFIDTMDYWGQGTQGTVSS | low polyreactivity
QVQLVESGGGLVHAGGSLRLSCAASGRTFRWYALGWYRQAPGKERELVAAISSSGTRTYYADSVKGRFTISRDNAKNTVYLQMNSLKPEDTAVYYCAATWRVGYDYWGQGTQVTVSS | high polyreactivity
QVQLVESGGGLVQAGGSLRLSWAASGRTLKYNAMGWYRQAHGKERELVSAISYSGSSTYYADSVKGRFTISRDNAKNTVYLQMNSLKPEDTAVYYCNTARPTAAYDYWGQGTQVTVSS | low polyreactivity
QVQLVESGGGLVQAGGSLRLSCAASGRIFKRNAMGWYRQAPGKERELVAAITGNVGSTYYADSVKGRFTISRDNAKNTVYLQMNSLKPEDTAVYYCAAYVQYSSIVGYGYWGQGTQVTVSS | high polyreactivity
QVQLVESGGGLVQAGGSLRLSCAASGRTRYPYTMGWYRQAPGKERELVAAITSSGGRTTYADSVKGRFTISRDNAKNTVFLQMYSLKPEDRAVYYCAKKFRPGYRSQYLRYSWGQGSQVTVSS | low polyreactivity
QDQLVESGGGLVQAGGSLRLSCAASGFTFGYYAMGWYRQAPGKERELVAAISTRGTSTYYADSVKGRFTISRDNAKNTVYLQMNSLKPEDTAVYYCARDKATDHGYNEFDYWGQGTQVTVSS | low polyreactivity
QVQLVESGGGVVQAGGSLRISCAASGSTFGFNAMGWYRQAPGKERELVAAINNSGDSTYYADSVKGRFTISRDNAKNTVYLQMNSLKPEDTAVYYCAAPYLGRYYKNGYWGQGTQVTVSS | low polyreactivity
QVQLVESGGRLVQAGGSLRLRCAASGFIFGWYTMGWYRQAPGKERELVASISRSGGSTYYADSVKGRFTISRDNEKNTVYVQMNSLKPEDTAVSYCAKRSLVDAHGYWGQGTQVTVSS | high polyreactivity
QVHIVESGGGLVQAGGSLRISCAASGRILLLYDMGWYRQAPGKERELVAAINWDGGYSYADSVKGRFTISRDNANNTVFLQMNSLKPADTAVYYCAKDDIWEHYDYWGQGTQVTVSS | low polyreactivity
